± gives the standard deviation.
Test: protein stability index of a GFP-peptide fusion (GPS, HEK-293T) (PSI 1-6); higher = more stable
Details: c terminus: a fixed tail appended
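Also: 24-mer peptide tiles fused after GFP, lentivirally expressed, FACS-sorted into six equal bins by GFP/DsRed ratio, decoded by Illumina sequencing, PSI is the read-weighted mean bin number.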

Row | Sequence | protein stability index (treatment: DMSO) | protein stability index (treatment: MLN4924 1 uM, 8 h)
1 | CQDCGRAFNQNSSLGRHKRTHTGE [ZNF8] | 3.73 ± 0.44 | 3.42 ± 0.17
2 | CRRCYDWIHRPGCRCKNSNTVYCK [SPRY1] | 2.82 ± 0.089 | 3.05 ± 0.13
3 | CVPPSEFSEPSFITESYQTLHPIS [ETS1] | 2.98 ± 0.19 | 3.08 ± 0.16
4 | DAENQKNWLDPAKEIKKQVRSGAW [EPB41L3] | 3.55 ± 0.5 | –
5 | DCRYPYEYEGGHIKTAVNLPLERD [CDC25B] | 4.13 ± 0.23 | 4.14 ± 0.63
6 | DDSSSESGSGNGSSTLNPSTSSST [NOL4L] | 5.57 ± 0.31 | 5.49 ± 0.2
7 | DEAGGGAEGDSWEEEGFGSSSPVK [WEE1] | 5.3 ± 0.068 | 5.35 ± 0.26
8 | DEDAGLPRPVQLDETHPYTVTSVS [NEK8] | 5.12 ± 0.19 | 5.23 ± 0.18
9 | DEDLRRQMQDDEQKTRLLEDSVSR [PALM] | 5.46 ± 0.32 | 5.31 ± 0.38
10 | DEEEEEEEEEEGRFYYSEDDHGDE [KCNA4] | 5.56 ± 0.14 | 5.55 ± 0.28
11 | DEPGKGGFWRIDPQYAERLLSGAF [FOXJ1] | 2.6 ± 0.25 | 2.73 ± 0.34
12 | DETLYQEFNGLKKMNPKLKTLLAI [CHIT1] | 2.3 ± 0.17 | 2.52 ± 0.47
13 | DFGDMHSYVRSRKRLREEEAARLF [TRIB1] | 3.5 ± 0.3 | 3.85 ± 0.45
14 | DFLIRDSESSPSDFSVSLKASGKN [NCK2] | 4.25 ± 0.25 | 4.4 ± 0.18
15 | DFPAHRIVLAACSDYFCAMFTSEL [KLHL12] | 3.08 ± 0.41 | 3.27 ± 0.51
16 | DFVNLMAYDFHGSWEKVTGHNSPL [CHIT1] | 1.9 ± 0.23 | 2.06 ± 0.19
17 | DGHRPEWTFYPRFSSNIHTYHVGK [SPATS1] | 2.96 ± 0.077 | 3.01 ± 0.21
18 | DGRSLSKLNLCEDGPCHKRRASIC [SCARA5] | 3.88 ± 0.33 | 3.93 ± 0.3
19 | DHSQRICEVWACNLDEEMKKIRQV [CNOT7] | 3.43 ± 0.2 | 3.7 ± 0.18
20 | DIDMTDYDDVRRCCSSADICPKCW [PRIM1] | 4.8 ± 0.41 | 4.84 ± 0.25
21 | DLAKLVDQQNPTLGETPENSNLEE [ZNF449] | 5.47 ± 0.16 | 5.32 ± 0.24
22 | DLAKTGCVDLTITNLLEGAVAFMP [AUP1] | 2.21 ± 0.11 | 2.05 ± 0.32
23 | DLDSRTDSDIPEIPPSSDRTPEIL [CDS1] | 5.42 ± 0.21 | 5.51 ± 0.21

Row | Sequence | protein stability index (treatment: DMSO) | protein stability index (treatment: MLN4924 1 uM, 8 h)
24 | DLEDPLGGLLSYDEGGITKQPPVT [FBF1] | 4.41 ± 0.28 | 4.35 ± 0.43
25 | DLGDIVARSESVLLHMPQPVNPEL [TRIM43] | 3.67 ± 0.31 | 3.8 ± 0.25
26 | DLVDLFDGTSQSTGGSADLFGGFA [CLINT1] | 2.69 ± 0.23 | 3.2 ± 0.32
27 | DLYKKVKKNSSPPLSLYGQLLWRE [CRY1] | 2.64 ± 0.39 | 2.67 ± 0.67
28 | DLYRDVMLENYSNLVSVGYQAGKP [ZNF649] | 2.82 ± 0.53 | 2.85 ± 0.23
29 | DNANILLQIDNARLAADDFRTKFE [KRT17] | 3.27 ± 0.26 | 3.71 ± 0.28
30 | DNLLPGMQPSKPQQPSLNTMIQQQ [CLINT1] | 4.38 ± 0.29 | 4.45 ± 0.28
31 | DNWKSQVEPETRAVIRWMHSFNFV [CPN1] | 2.26 ± 0.52 | 2.23 ± 0.14
32 | DQLAFIEELFSLMVVNRLTEELGC [EID1] | 3.01 ± 1.2 | 3.21 ± 0.51
33 | DQRNPAKESLETPSNGRIDIKQLI [SOAT1] | 4.13 ± 0.26 | 4.24 ± 0.23
34 | DRKGYMFDYEYDWIGKQLPTPVGA [CSNK1G3] | 2.55 ± 0.23 | 2.62 ± 0.25
35 | DRLNEQEGVPSVFNPPPSRPLQVN [FAF2] | 4.23 ± 0.28 | 4.25 ± 0.1
36 | DSQEAQSPGHSSAGQEGEDTLRRR [TOR1AIP2] | 5.58 ± 0.26 | 5.45 ± 0.58
37 | DTKMSFQWRIRNLPYPKDVYSVSV [DPCD] | 2.79 ± 0.52 | 2.71 ± 0.65
38 | DTRVYIWDPHNGDILMEFGHLFPP [WSB1] | 2.38 ± 0.98 | 2.42 ± 0.44
39 | DWEIQEDSRLMCSSVQKALFEEED [CCDC3] | 5.34 ± 0.25 | 5.54 ± 0.36
40 | DYGRKAEELLWRKVYYEVIQLIKT [SMG5] | 2.71 ± 0.57 | –
41 | DYHLLHPVENIPEIILYWKHSTIF [SLC25A25] | 2.71 ± 0.46 | 2.76 ± 0.63
42 | DYLIQATNETNVNIPQMADTLFER [SNAP91] | 3.64 ± 0.29 | 3.75 ± 0.2
43 | EAAFHPIEEYMVHVEEHFQLLARR [FUT8] | 3.06 ± 0.29 | 3.34 ± 0.36
44 | EANGLLPDDKLTLFCEVSVVQDSV [SPOPL] | 2.88 ± 0.49 | 3.03 ± 0.66
45 | EANSAKVQEDLEAEFQSLFSLLEE [FSD1] | 5.02 ± 0.09 | 5.05 ± 0.12
46 | EDEKLCDPNTRPVGEKNCTGPPCD [ADAMTSL2] | 5.47 ± 0.21 | 5.46 ± 0.26

Row | Sequence | protein stability index (treatment: DMSO) | protein stability index (treatment: MLN4924 1 uM, 8 h)
47 | EDGRPSLGSPYGQPPRFPVPHNGS [PDLIM4] | 4.8 ± 0.17 | 4.63 ± 0.26
48 | EDQWGKGTLTPRMTTDFDLSLDNS [TRIM9] | 4.7 ± 0.18 | 4.9 ± 0.33
49 | EDSAESRPWRAGVLAEGDNASRSL [PSD2] | 5.21 ± 0.18 | 5.14 ± 0.084
50 | EDVKCQEDQKLQVLLTQIESKKHQ [TRIM15] | 5.12 ± 0.32 | 5.18 ± 0.1
51 | EEALKDEEERAQDRIATTDDTTAM [MAGEA10] | 5.7 ± 0.17 | 5.47 ± 0.24
52 | EEKVRDLLWAKFTNSDTPTSFNHM [TOR1AIP2] | 3.08 ± 0.12 | 3.19 ± 0.13
53 | EELANLRASQREYEELRNSERAEV [RSPH3] | 5.21 ± 0.4 | 5.18 ± 0.31
54 | EELDKYWSQQIEESTTVVTTQSAE [KRT18] | 5.16 ± 0.27 | 5.23 ± 0.25
55 | EELEQEELNKKMTNIRLPNVPSSS [CHMP4C] | 5.27 ± 0.14 | 5.29 ± 0.15
56 | EELERRFEDEVKRLGWQQQAELQE [MTUS2] | 5.01 ± 0.51 | 5.24 ± 0.35
57 | EELPCTCPLCTSDRGSCVSTTEGI [RHOBTB3] | 4.53 ± 0.22 | 4.62 ± 0.27
58 | EEPSNKRVRPLARVTSLANLISPV [NET1] | 3.43 ± 0.47 | 3.44 ± 0.19
59 | EEREKEAAEQAERSQSSIVPEEEQ [SMARCE1] | 5.62 ± 0.36 | 5.57 ± 0.15
60 | EESPNGSEGACEKEKQSRDFQGRI [RHOBTB1] | 5.35 ± 0.21 | 5.32 ± 0.46
61 | EFEQFESTIGFKLPNHRAAKRLWK [EPB41L3] | 3.17 ± 0.39 | 3.27 ± 0.61
62 | EFKQNIENVSVEMLLRKFAESKGT [FCHO1] | 2.84 ± 0.27 | 3.02 ± 0.32
63 | EFPYRMNHILECEFYLLELMDCCL [CCNC] | 2.68 ± 0.31 | 2.84 ± 0.6
64 | EGASSQIGRAAGTGFTVNVAWNGP [HDAC6] | 3.13 ± 0.34 | 3.38 ± 0.29
65 | EGSGHSTGEDSAFQEPDSPLPPAR [WEE1] | 5.48 ± 0.14 | 5.52 ± 0.13
66 | EGTFRPERLLAVAERYGLSGSDVL [RAD51] | 3.23 ± 0.18 | 3.45 ± 0.11
67 | EGTSSIVMEIQKQIEKKEKKLHKI [TAF7L] | 4.18 ± 0.044 | 4.76 ± 0.15
68 | EGYTSFWNDCISSGLRGGILIELA [GOLPH3L] | 3.14 ± 0.74 | 2.49 ± 0.52
69 | EHLDNLRLNLTNTKQNFFSQTPIL [INTS3] | 2.35 ± 0.28 | 2.48 ± 0.32

Row | Sequence | protein stability index (treatment: DMSO) | protein stability index (treatment: MLN4924 1 uM, 8 h)
70 | EHRHAAAALAAMNGRKIMGKEVKV [TIA1] | 3.88 ± 0.23 | 3.85 ± 0.27
71 | EIRKKVLKIYNKREEDFPSLREYN [MNAT1] | 2.45 ± 0.43 | 2.64 ± 0.51
72 | EKGETMEVIEKPENDPEWWKCKNA [NCK2] | 5.36 ± 0.32 | 5.486 ± 0.04
73 | EKIDKLEQDMERRKADFKAGKALV [ZC3H15] | 4.74 ± 0.3 | 4.67 ± 0.23
74 | EKPPSGTKEKKHQCDHCERCFYTR [PLAGL1] | 3.87 ± 0.26 | 4.3 ± 0.62
75 | EKSIEQTQIKGLKNKPKKMGHIKP [PHTF1] | 3.93 ± 0.24 | 4.21 ± 0.25
76 | EKSQLIMQAEAEAASVRMRGEAEA [FLOT1] | 5.04 ± 0.12 | 4.7 ± 0.26
77 | EKSTVVEGGEVRFNGKGKKIRKPR [DLX1] | 4.77 ± 0.28 | 5.06 ± 0.33
78 | ELFIITQLQSMPSRELASMNLDIV [RHOBTB3] | 2.31 ± 0.85 | 3.25 ± 0.55
79 | ELFQLQTYSLPPFLKAVLRQERVS [CDS1] | 1.99 ± 0.28 | 1.97 ± 0.37
80 | ELHIHRLRYLSSIWNILDLVVILL [PKD2L1] | 2.28 ± 0.33 | 2.54 ± 0.28
81 | ELIGACEFMKDRLYFATLRNRPKS [CDC14A] | 2.1 ± 0.5 | 2.24 ± 0.19
82 | ELPDPLGGLLDEAMLDEISLMDLA [NFE2L1] | 4.26 ± 0.54 | 4.55 ± 0.23
83 | ELPTRIHEEVYFEPSSSKDSDENS [MIA2] | 5.34 ± 0.14 | 4.79 ± 0.58
84 | ELQGLPELHEECEGNHPSARKLTA [NET1] | 4.87 ± 0.21 | 4.56 ± 0.41
85 | ELRLVFGPLGDQLHAQLRDLTSSS [ELF3] | 2.17 ± 0.25 | 2.25 ± 0.29
86 | ELRRQAPPPPPPSRGGPPPPPPPP [WASL] | 4.49 ± 0.44 | 4.64 ± 0.09
87 | ELSEVLENQSSQAELKEAVEEPSS [CHGA] | 5.78 ± 0.21 | 5.67 ± 0.34
88 | ELTLARTDLEMQIEGLKEELAYLR [KRT16] | 2.95 ± 0.61 | 2.79 ± 0.44
89 | EMSKDANFGLRLVVQRCSGQKWMI [GALNT9] | 2.2 ± 0.65 | 2.85 ± 1
90 | EMTPEKFSVLMEKLCKKGLAATTS [FANCE] | 2.75 ± 0.57 | 2.88 ± 0.36
